Experimental data published in publication PMC3942355, “Unraveling Regulation of the Small Heat Shock Proteins by the Heat Shock Factor HvHsfB2c in Barley: Its Implications in Drought Stress Response and Seed Development”.

Molecular target: HvHsfB2c (Hordeum vulgare (barley) cv. Golden …, UniProt F4ZC69 1-362)
Assay: EMSA; 100 ng poly(dI-dC); EMSA as described previously (ref 24), with 100 ng poly(dI-dC); buffer, salt, pH and temperature not given
Details: protein: ivt; chain copies: 3; 5' overhang 4 nt (TCGA) on both strands, 40 bp duplex

Sequence of HvHsfB2c (F4ZC69 entry or part of it): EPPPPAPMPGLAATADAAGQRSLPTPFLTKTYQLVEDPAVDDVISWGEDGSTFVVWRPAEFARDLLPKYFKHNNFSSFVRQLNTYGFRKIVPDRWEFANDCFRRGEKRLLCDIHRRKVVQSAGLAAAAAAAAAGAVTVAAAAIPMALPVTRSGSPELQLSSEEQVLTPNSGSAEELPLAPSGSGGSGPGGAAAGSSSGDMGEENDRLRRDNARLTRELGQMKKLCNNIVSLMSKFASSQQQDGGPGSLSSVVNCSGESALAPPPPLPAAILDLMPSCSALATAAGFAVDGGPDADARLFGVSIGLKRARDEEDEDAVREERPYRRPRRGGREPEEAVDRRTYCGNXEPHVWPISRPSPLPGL

B1: HSE-box fragment of HvsHsp17.5-CI promoter (HSE-1/HSE-2) (dsDNA)
DNA 1: TCGAACAACCCAAAATCCAAAAAATTCCACAACCCCAAAAAGGC
DNA 2: TCGAGCCTTTTTGGGGTTGTGGAATTTTTTGGATTTTGGGTTGT
binding result: binds
